Positions of bridges follow the written chain, without caps; N, C: chain ends. No end group written: not given here.
Key:
[1] = target: T1, recombinant human RSPO3 protein (human, UniProt Q9BXY4 22-272); test: cell-based or functional assay
T1 sequence (looked up): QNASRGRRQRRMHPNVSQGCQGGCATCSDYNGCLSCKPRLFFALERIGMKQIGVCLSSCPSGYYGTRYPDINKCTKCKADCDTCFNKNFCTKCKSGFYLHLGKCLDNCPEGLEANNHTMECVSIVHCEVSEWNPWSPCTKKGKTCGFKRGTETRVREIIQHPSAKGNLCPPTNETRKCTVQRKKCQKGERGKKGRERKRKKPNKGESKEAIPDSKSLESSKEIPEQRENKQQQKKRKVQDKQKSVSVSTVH

[2] = target: T1, recombinant human RSPO3 protein; test: SPR (Biacore T200); hRSPO3 immobilised on CM5 chip, antibody injected, single-cycle, 1:1 model
Protocol: FIG. 7 is a graph showing use of Biacore to measure the binding kinetics of α-RSPO3 Abs-antigen interaction. The binding sensorgrams were generated using a Biacore T200 and then fitted to a simple 1:1 interaction model. […] The association was monitored for 2 min, and the final dissociation time was 15 min hRSPO3 was immobilized on a CMS chip at 27.5 RU.
The binding kinetics between α-RSPO3 Abs and recombinant human RSPO3 protein (hRSPO3) were performed at 25° C. using a Biacore T200 biosensor equipped with a CMS Series S Sensor Chip (GE Healthcare). […] Obtained sensorgrams were corrected by double subtracting the signal obtained on a reference surface and the signal of the running buffer. Sensograms were fit globally with BIAcore T200 evaluation software 3.0 using 1:1 binding model to yield affinity constants (KD values) for α-RSPO3 Abs. Replicate measurements were made in separate experiments, using independently prepared α-RSPO3 Abs dilution series and huRSPO3-coated chip surfaces.

[3] = target: T1, recombinant human RSPO3 protein; test: competition ELISA on coated hRSPO3; blocked ligand: biotinylated LGR5 (22-560)-Fc, streptavidin-HRP [A]
Protocol: After removing extra detection antibodies by washing the plates with 1× PBST, a TMB substrate solution was added to each well for 10 minutes.
Recombinant human RSPO3 (Peprotech) at 500 ng/ml was coated on the plates.

peptide B-40-47 = target: T2, peptide B-40-47 (Homo sapiens, UniProt Q9BXY4, disulfide (positions not given here); also: biotinylated, intrachain disulfide, Cys pairing not given here); test: ELISA: biotinylated cyclic peptide (1 µg/ml) on NeutrAvidin plate, hB1, anti-human IgG-Fc-HRP, OD 450 [B]
T2 construct: synthetic cyclic peptide, a.a; also called cyclic peptide a.a; 40-47 derived from hRSPO3
T2 peptide (looked up): CQGGCATC
Protocol: (§1) FIG. 9 is a set of schematics and graphs showing epitope studies of several α-RSPO3 antibodies. […] Streptavidin-HRP was then added for detection of the bound biotinylated antibody. (B) The biotinylated cyclic peptides, at 1 μg/ml, and biotinylated recombinant human RSPO3, at 100 ng/ml, were applied to NeutrAvidin pre-coated plates. […] To detect bound anti-RSPO3 antibodies, Goat anti-human IgG-Fc-HPR (Chemicon) was then applied to the plates.
(§2) Further conformation epitope studies of α-RSPO3 Abs were performed using recombinant RSPO3 truncated proteins and cyclic peptides scanning to narrow down their target sequences. […] RSPO3 contains a furin-like cysteine-rich region. Until now, the 3D structure of RSPO3 has not been reported. Additionally, four cyclic peptides (a.a. 40-47, 44-53, 56-75 and 79-94) were designed to measure the binding of α-RSPO3 mAbs to the cyclic peptides derived from hRSPO3.

peptide B-44-53 = target: T3, peptide B-44-53 (Homo sapiens, UniProt Q9BXY4, disulfide (positions not given here); also: biotinylated, intrachain disulfide, Cys pairing not given here); test: as above
T3 construct: synthetic cyclic peptide, a.a; also called cyclic peptide a.a; 44-53 derived from hRSPO3
T3 peptide (looked up): CATCSDYNGC
Protocol: as §1, §2

peptide B-79-94 = target: T4, peptide B-79-94 (Homo sapiens, UniProt Q9BXY4, disulfide 1-16 (inferred); also: biotinylated); test: as above
T4 construct: synthetic cyclic peptide, a.a; also called cyclic peptide a.a; 79-94 derived from hRSPO3
T4 peptide (looked up): CPSGYYGTRYPDINKC
Protocol: as §1, §2

B1: humanized anti-RSPO3 antibody hB1 (antibody, V domains shown)
VH: QIQLQESGPGLVKPSESLSLTCSVTGYSITSGYYWNWIRQFPGNGLEWMGYISYDGTNNYNPSLKDRISITRDTSKNQFFLKLNSVTAADTATYYCSVLLIQYFNIWGKGTTVTVSS
VL: DIQMTQSPSSLSASVGERVTITCRTSESVNNFLAWFHQKPGKSPKLLVYHAKTLADGVSSRFSGSGSGTQYSLKINSLQPEDFGNYYCQHFWSIPWTFGGGTKLEIKR
notes: Humanized from murine B1
IC50 in the WNT reporter assay (MDA-MB436 TCF/LEF-Luc, Wnt3a plus hRSPO3) [1]: 58 nM | Kd [2]: 0.0268 nM | koff [2]: 3.4e-05 s⁻¹ | kon [2]: 1.7e+06 M⁻¹ s⁻¹ | IC50 (read off the curve) [3]: ~0.9 µg/mL | binding result (peptide B-40-47): no binding | binding result (peptide B-44-53): no binding | binding result (peptide B-79-94): no binding
